Target: mare1_human MAPRE1 (UniProt Q15691)
Sequence (Q15691 whole entry): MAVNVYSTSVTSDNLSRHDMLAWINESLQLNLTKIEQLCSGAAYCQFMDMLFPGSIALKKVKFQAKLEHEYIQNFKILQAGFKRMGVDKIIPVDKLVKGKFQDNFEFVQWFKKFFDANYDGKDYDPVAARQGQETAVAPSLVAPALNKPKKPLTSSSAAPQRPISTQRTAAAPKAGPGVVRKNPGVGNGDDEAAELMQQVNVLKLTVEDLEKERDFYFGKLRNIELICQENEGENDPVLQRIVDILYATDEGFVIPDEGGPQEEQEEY

Dystonin (Homo sapiens), Q03001 I7552N;P7553N
effect of a mutation on the interaction: decreasing interaction
